B1: recombinant human IFN-γ (ligand, UniProt P01579 24-166, looked up)
chain: QDPYVKEAENLKKYFNAGHSDVADNGTLFLGILKNWKEESDRKIMQSQIVSFYFKLFKNFKDDQSIQKSVETIKEDMNVKFFNSNKKKRDDFEKLTNYSVTDLNVQRKAIHELIQVMAELSPAAKTGKRKRSQMLFRGRRASQ
modifications: radioiodinated with 125I using lactoperoxidase in the binding assays and ligand blots; unlabeled as competitor and in cell assays
notes: also called hIFN-γ
B2: human IFN-γ receptor-IgG-1 immunoadhesin (hIFNγR-IgG-1) (Fc fusion, not shown: a dimerising Fc or GST)
chain: EMGTADLGPSSVPTPTNVTIESYNMNPIVYWEYQIMPQVPVFTVEVKNYGVKNSEWIDACINISHHYCNISDHVGDPSNSLWVRVKARVGQKESAYAKSEEFAVCRDGKIGPPKLDIRKEEKQIMIDIFHPSVFVNGDEQEVDYDPETTCYIRVYNVYVRMNGSEIQYKILTQKEDDCDEIQCQLAIPVSSLNSQYCVSAEGVLHVWGVTTEKSKEVCITIFNSSIKG
B3: recombinant murine IFN-γ (ligand, UniProt P01580 23-155, looked up)
chain: HGTVIESLESLNNYFNSSGIDVEEKSLFLDIWRNWQKDGDMKILQSQIISFYLRLFEVLKDNQAISNNISVIESHLITTFFSNSKAKKDAFMSIAKFEVNNPQVQRQAFNELIRVVHQLLPESSLRKRKRSRC
modifications: radioiodinated with 125I using lactoperoxidase in the binding assays and ligand blots; unlabeled as competitor and in cell assays
notes: also called mIFN-γ
B4: murine IFN-γ receptor-IgG-1 immunoadhesin (mIFNγR-IgG-1) (Fc fusion, UniProt P15261 26-254, looked up, not shown: a dimerising Fc or GST)
chain: ALTSTEDPEPPSVPVPTNVLIKSYNLNPVVCWEYQNMSQTPIFTVQVKVYSGSWTDSCTNISDHCCNIYEQIMYPDVSAWARVKAKVGQKESDYARSKEFLMCLKGKVGPPGLEIRRKKEEQLSVLVFHPEVVVNGESQGTMFGDGSTCYTFDYTVYVEHNRSGEILHTKHTVEKEECNETLCELNISVSTLDSRYCISVDGISSFWQVRTEKSKDVCIPPFHDDRKDS

How the values were obtained:
[1] = target: B4; experiment: competition binding assay with [125I]mIFN-γ on immobilized mIFNγR-IgG (data not shown)
Method: (§1) IFNv binding assays. The binding of IFNγR-IgGs to IFN-γ was analyzed essentially as described [Ashkenazi et al., *Proc. Natl. Acad. Sci. USA* 88: 10535–10539 (1991)]. Each IFNγR-IgG (1 μg/ml) was immobilized onto microtiter wells coated with goat anti-human IgG Fc antibody. […] Nonspecific binding was determined by omitting IFNγR-IgGs.
(§2) Binding of IFNγR-IqG to IFN-γ. We investigated the binding of the human and murine immunoadhesins to IFN-γ by equilibrium binding analysis (FIG. 2). […] 135: 300–305 (1985); Ucer, et al, Int. J. Cancer 36: 103–108 (1985)].

[2] = target: B2; experiment: equilibrium binding of [125I]hIFN-γ to immunoadhesin immobilized on anti-human IgG Fc coated wells, Scatchard analysis
Method: as §1, §2

recombinant human IFN-γ = target: B1; experiment: cell-based or functional assay
[3] = target: B2; experiment: competition binding assay with [125I]hIFN-γ on immobilized hIFNγR-IgG (data not shown)
Method: as §1, §2

[4] = target: B4; experiment: equilibrium binding of [125I]mIFN-γ to immunoadhesin immobilized on anti-human IgG Fc coated wells, Scatchard analysis
Method: as §1, §2

recombinant murine IFN-γ = target: B3; experiment: cell-based or functional assay

B1
binding result [1]: no binding | Kd [2]: 1.5 nM

B2
inhibition of hIFN-γ antiviral effect in EMCV-infected human A549 cells, IC50 (recombinant human IFN-γ): ~8 nM | inhibition of hIFN-γ induction of ICAM-1 in human HeLa cells, half-maximal inhibition (IC50) (recombinant human IFN-γ): ~13 nM

B3
binding result [3]: no binding | Kd [4]: 3.3 nM

B4
inhibition of mIFN-γ antiviral effect in EMCV-infected mouse L929 cells, IC50 (recombinant murine IFN-γ): ~10 nM | inhibition of mIFN-γ induction of class I MHC antigen H-2Kk in mouse L929 cells, IC50 (recombinant murine IFN-γ): ~10 nM
